38 molecules from patent publication US20260242478A1 (published 2026) can be followed below.

Where no end group is shown, it is not given here.

The chains are these.
B1: Peptide-134 (peptide)
peptide: YCEGHLPEYIQKCL
modifications: not fully specified; cysteine pairing not given here; also: biotinylated, site not given here
B2: Phage-445 (peptide)
peptide: MDWCPRARWHDCFF
notes: Clone of the Peptide-9 optimisation library
B3: Phage-449 (peptide)
peptide: MVDCPLISFDECLA
notes: as for B2
B4: Phage-451 (peptide)
peptide: MDWCPRFWWHECYA
notes: as for B2
B5: Phage-448 (peptide)
peptide: MAWCPWASFDECLA
notes: as for B2
B6: Phage-452 (peptide)
peptide: MDWCPRDWWHMCFN
notes: as for B2
B7: Phage-446 (peptide)
peptide: MDWCPRDRWDDCFN
notes: as for B2
B8: Phage-442 (peptide)
peptide: IYWCPIDRWNDCYN
notes: as for B2
B9: Phage-450 (peptide)
peptide: EDWCPTDVWPYCFS
notes: as for B2
B10: Phage-443 (peptide)
peptide: MDWCPMTRWNDCYF
notes: as for B2
B11: Phage-453 (peptide)
peptide: MDWCPSDYWYVCFA
notes: as for B2
B12: Phage-447 (peptide)
peptide: MDWCPRDRWDVCYY
notes: as for B2
B13: Phage-1359 (peptide)
peptide: MCSAGAMYKWPLCL
notes: Clonal phage of the Peptide-92 library, tested as crude supernatant; not shown: fused to the pIII filament of the bacteriophage
B14: Phage-1358 (peptide)
peptide: TCAAGAMWAWPVCL
notes: as for B13
B15: Phage-1350 (peptide)
peptide: TCAAGATYLWPTCL
notes: as for B13
B16: Phage-1351 (peptide)
peptide: TCAAGAHYPWPACL
notes: as for B13
B17: Phage-1355 (peptide)
peptide: LCSAGAMWPWPTCL
notes: as for B13
B18: Phage-1356 (peptide)
peptide: LCSAGAMYSWPTCL
notes: as for B13
B19: Peptide-284 (peptide)
peptide: TEVRCTPPWMCLGF
notes: From the Peptide-180 optimisation phage library
B20: Peptide-268 (peptide)
peptide: VEKVCKPVWMCVGF
notes: as for B19
B21: Peptide-271 (peptide)
peptide: EDILCKPKWMCEGF
notes: as for B19
B22: Peptide-282 (peptide)
peptide: IVVKCVPSWMCEGF
notes: as for B19
B23: Peptide-263 (peptide)
peptide: AVKACIPEWMCIGF
notes: as for B19
B24: Peptide-286 (peptide)
peptide: VLKYCIPDWMCAGI
notes: as for B19
B25: Peptide-283 (peptide)
peptide: TVAYCKPAWMCQGF
notes: as for B19
B26: Peptide-274 (peptide)
peptide: ITPVCKPLWMCSGL
notes: as for B19
B27: Peptide-270 (peptide)
peptide: ESRLCVPAWMCAGF
notes: as for B19
B28: Peptide-285 (peptide)
peptide: VERLCTPAWMCHGF
notes: as for B19

One assay addresses T1, PSMA Fab.
T1 construct: also called 006 PSMA Fab; anti-PSMA Fab
Nature of the assay: competition ELISA; peptide 0-100 µM with 0.3 nM PSMA Fab on plate-captured biotinylated PSMA. (In an ELISA, binding on a coated surface is turned into a signal by an enzyme label.)
For the molecule LDNWCKPSWMCTGF [Peptide-227], the IC50 worked out at 760 nM. This lies in the sub-micromolar range.
On the same count and under the same terms, then IPKSCIPSWMCTGF [Peptide-225], with 340 nM.

In a further assay the target is T1, PSMA Fab. Nature of the assay: BLI (Octet); PSMA Fab on sensor-loaded biotinylated peptide, 1:1 model. (BLI is a label-free optical method that tracks binding on a fibre tip over time.)
For LDNWCKPSWMCTGF [Peptide-227], the “Off rate t1/2” value worked out at 2.1 min.
Same read-out and setting: the figure for HVKLCKPAWMCQGL [Peptide-219] is 2.9 min; for VTKWCIPPWMCEVT [Peptide-230] it is 6.4 min; for IPKSCIPSWMCTGF [Peptide-225] it is 2.1 min.

The target in another assay is anti-CD28 Fab. Kind of assay: competition ELISA, peptide titrated 0-100 uM against 1 nM anti-CD28 Fab, plate-bound CD28 as competitor.
Target sequence in this assay (VH, as listed by the source, chain 1 of 2): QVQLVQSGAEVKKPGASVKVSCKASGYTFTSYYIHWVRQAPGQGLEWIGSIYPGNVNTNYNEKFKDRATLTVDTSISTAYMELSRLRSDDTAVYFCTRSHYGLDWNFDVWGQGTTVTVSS
Target sequence in this assay (VL, as listed by the source, chain 2 of 2): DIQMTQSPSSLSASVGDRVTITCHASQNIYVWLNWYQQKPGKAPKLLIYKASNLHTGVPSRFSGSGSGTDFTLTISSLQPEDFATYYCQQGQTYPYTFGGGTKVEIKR
In the case of YCAGHTEEHYVKCM [Peptide-96], the IC50 was determined as 7590 nM. This lies in the single-digit micromolar range.
Consider YCMGHSHEHIWKCL [Peptide-97], for which the IC50 is 69100 nM. Against the preceding molecule, the IC50 is about 9.1-fold higher.
On the same count and under the same terms, then YCAGHMPQYEVKCL [Peptide-95], with 43600 nM; and YCAGHSHEYLAKCE [Peptide-98], with 7040 nM.
SCAAGASYAWPYCL [Peptide-92] showed a half-maximal inhibitory concentration (IC50) of 2390 nM.

Another assay has as its target anti-CD28 Fab. The description is as above. The source holds these as a separate data set.
Target sequence in this assay (VH, as listed by the source, chain 1 of 2): as the sequence (VH, as listed by the source, chain 1 of 2) above
Target sequence in this assay (VL, as listed by the source, chain 2 of 2): as the sequence (VL, as listed by the source, chain 2 of 2) above
Molecule SCAAGASYAWPYCL [Peptide-92] showed a concentration for half-maximal inhibition (IC50) of 11800 nM.

The next assay deals with T2, anti-CD28 scFv (disulfide).
T2 construct: also called Anti-CD28 scFv (VH - linker 1 - VL) Disulfide mutation: G44C, G235C
T2 sequence (scFv, as listed by the source): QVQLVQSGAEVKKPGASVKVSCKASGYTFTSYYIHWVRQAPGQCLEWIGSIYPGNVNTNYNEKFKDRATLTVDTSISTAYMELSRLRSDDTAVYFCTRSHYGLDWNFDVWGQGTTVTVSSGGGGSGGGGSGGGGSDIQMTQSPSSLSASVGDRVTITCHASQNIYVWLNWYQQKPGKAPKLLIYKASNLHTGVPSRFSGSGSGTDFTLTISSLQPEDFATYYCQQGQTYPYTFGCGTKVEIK
Kind of assay: competition ELISA: peptide titrated (0-100 µM) with 0.3 nM anti-CD28 scFv (disulfide), binding to plate-bound CD28.
Take YCEGHLPEYRNKCL (cysteine pairing not given here; also: biotinylated, site not given here) [Peptide-132]: the IC50 is 780 nM.
Still for that read-out and setting: the figure for B1 is 480 nM.

For a further assay, the target named is T3, Anti-CD28 scFv (VH - linker 1 - VL) (biotinylated (site not stated)). Kind of assay: clonal phage ELISA on anti-CD28 scFv plate; wells pre-incubated with soluble CD28 as competitor.
T3 sequence (scFv, as listed by the source): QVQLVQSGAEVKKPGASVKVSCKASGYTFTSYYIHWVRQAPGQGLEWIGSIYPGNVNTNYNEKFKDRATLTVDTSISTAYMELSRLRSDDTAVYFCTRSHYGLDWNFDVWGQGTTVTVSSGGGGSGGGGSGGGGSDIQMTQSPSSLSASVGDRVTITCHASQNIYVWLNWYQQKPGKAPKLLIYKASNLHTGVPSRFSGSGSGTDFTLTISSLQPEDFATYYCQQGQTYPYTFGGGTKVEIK
For B2, the “CD28 scFv signal in presence of CD28” value worked out at 0.138.
Still for that read-out and setting: the figure for B3 is 0.076; for B4 it is 0.503; for B5 it is 0.109.
In the case of B6, the “CD28 scFv signal in presence of CD28” value was 0.243.
In the case of B7, the “CD28 scFv signal in presence of CD28” value was 0.077.
The same measure, in the same setting: the figure for B8 is 0.164.
The same measure, in the same setting: then B9, with 0.157; and B10, with 0.078.
In the case of B11, the “CD28 scFv signal in presence of CD28” value is 0.08.
Turning to B12, the “CD28 scFv signal in presence of CD28” value amounted to 0.073.

For a further assay, the target named is T3, Anti-CD28 scFv (VH - linker 1 - VL). Nature of the assay: clonal phage ELISA; biotinylated anti-CD28 scFv on neutravidin plate, bound phage detected with anti-M13 HRP.
Procedure: Clonal phage were harvested as crude supernatants and screened via standard enzyme linked immunosorbent assays (ELISAs). […] Prior to the addition of clonal phage, wells were incubated with blocking buffer and CD28 soluble protein or blocking buffer alone. Without washing or aspirating, clonal phage supernatants were then added to the wells and incubated for a short time. Wells were then washed followed by detection of bound phage using a horse radish peroxidase conjugated anti-M13 antibody.
Turning to B2, the “CD28 scFv signal” value worked out at 0.497.
Same read-out and setting: the figure for B3 is 0.07.
As to B4, the “CD28 scFv signal” value worked out at 2.4.
The same measure, in the same setting: the figure for B5 is 0.089; for B6 it is 2.12.
On the same count and under the same terms, then B7, with 0.45; and B8, with 0.867; and B9, with 0.711.
Same read-out and setting: the figure for B10 is 0.671.
As for B11, the “CD28 scFv signal” value turned out to be 0.707.
Same read-out and setting: the figure for B12 is 0.074.

In another assay the target is T4, Anti-CD28 Fab (SEQ ID NOs: 696, 697).
T4 construct: In the phage ELISA the Fab was biotinylated and captured on neutravidin coated plates
T4 sequence (VH, as listed by the source, chain 1 of 2): as the sequence (VH, as listed by the source, chain 1 of 2) above
T4 sequence (VL, as listed by the source, chain 2 of 2): as the sequence (VL, as listed by the source, chain 2 of 2) above
Nature of the assay: phage binding ELISA on captured anti-CD28 Fab; wells pre-incubated with CD28 antigen as competitor.
Procedure: Clonal phage were harvested as crude supematants and screened via standard ELISAs. […] Prior to the addition of clonal phage, wells were incubated with blocking buffer and CD28 antigen or blocking buffer alone. Without washing or aspirating, clonal phage supematants were then added to the wells and incubated for a short time. Wells were then washed followed by detection of bound phage using a horse radish conjugated anti-M13 antibody. Clonal phage of interest were then sent for sequence analysis.
With B13, the “Anti-CD28 Fab signal in the presence of CD28” value is 0.05.
Same read-out and setting: the figure for B14 is 0.09; for B15 it is 0.06.
Still for that read-out and setting: the figure for B16 is 0.07.
On the same count and under the same terms, the figure for B17 is 0.08.
As for B18, the “Anti-CD28 Fab signal in the presence of CD28” value was found to be 0.12.

For the next assay, the target named is anti-CD28 Fab. Kind of assay: competition ELISA, peptide titrated 0-100 uM against 1 nM anti-CD28 Fab, plate-bound CD28 as competitor. This is another data set of the same source.
Target sequence in this assay (VH, as listed by the source, chain 1 of 2): as the sequence (VH, as listed by the source, chain 1 of 2) above
Target sequence in this assay (VL, as listed by the source, chain 2 of 2): as the sequence (VL, as listed by the source, chain 2 of 2) above
For SCAAGASYAWPYCL [Peptide-92], the IC50 is 7890 nM.

For the next assay, the target named is T1, PSMA Fab. Kind of assay: binding ELISA; PSMA Fab titrated on plate-captured biotinylated peptide.
LDNWCKPSWMCTGF [Peptide-227] gave a 50% effective concentration (EC50) of 7.7 nM. This lies in the single-digit nanomolar range.
The same measure, in the same setting: then HVKLCKPAWMCQGL [Peptide-219], with 6.1 nM; and IPKSCIPSWMCTGF [Peptide-225], with 9.7 nM.

For another assay, the target named is T1, PSMA Fab. The description is as above. This is another data set of the same source.
As for B19, it took 20 nM to reach a half-maximal effect (EC50).
The same measure, in the same setting: the figure for B20 is 5.1 nM; for B21 it is 5.7 nM; for B22 it is 9.2 nM.
Molecule B23 yielded an EC50 of 8.4 nM.
The same measure, in the same setting: the figure for B24 is 4 nM; for B25 it is 7.8 nM.
Still for that read-out and setting: then B26, with 4 nM.
On the same count and under the same terms, then B27, with 17.3 nM; and B28, with 25 nM.

The target in the next assay is T4, Anti-CD28 Fab (SEQ ID NOs: 696, 697). Nature of the assay: phage binding ELISA; biotinylated anti-CD28 Fab on neutravidin plate, clonal phage supernatant, anti-M13 HRP.
Procedure: Clonal phage were harvested as crude supematants and screened via standard ELISAs. […] Prior to the addition of clonal phage, wells were incubated with blocking buffer and CD28 antigen or blocking buffer alone. Without washing or aspirating, clonal phage supematants were then added to the wells and incubated for a short time. Wells were then washed followed by detection of bound phage using a horse radish conjugated anti-M13 antibody.
In the case of B13, the “Anti-CD28 Fab (SEQ ID NOs: 696, 697) signal” value was found to be 2.32.
Same read-out and setting: the figure for B14 is 2.32; for B15 it is 1.68.
On the same count and under the same terms, then B16, with 1.92; and B17, with 2.39.
Same read-out and setting: the figure for B18 is 2.39.

A further assay deals with T1, PSMA Fab. Nature of the assay: BLI (Octet); PSMA Fab on sensor-loaded biotinylated peptide, 1:1 model. This is another data set of the same source.
In the case of B19, the “Off rate t1/2” value turned out to be 1.4 min.
As to B20, the “Off rate t1/2” value amounted to 3 min.
Still for that read-out and setting: then B21, with 3.3 min.
Still for that read-out and setting: the figure for B22 is 1.9 min.
Still for that read-out and setting: the figure for B23 is 2.3 min; for B24 it is 3.3 min; for B25 it is 1.4 min.
As for B26, the “Off rate t1/2” value came out at 3.3 min.
The same measure, in the same setting: the figure for B27 is 1.4 min; for B28 it is 1.1 min.

The next assay concerns the target T1, PSMA Fab. Kind of assay: competition ELISA; peptide 0-100 µM with 0.3 nM PSMA Fab on plate-captured biotinylated PSMA. The source holds these as a separate data set.
The molecule B19 yielded an IC50 of 970 nM.
Same read-out and setting: then B20, with 250 nM; and B21, with 300 nM.
On the same count and under the same terms, then B22, with 190 nM; and B23, with 620 nM; and B24, with 640 nM.
The same measure, in the same setting: the figure for B25 is 820 nM; for B26 it is 330 nM.
In the case of B27, the IC50 was 700 nM.
Same read-out and setting: then B28, with 710 nM.

Another assay deals with anti-CD28 Fab. Kind of assay: BLI (Octet): biotinylated peptide on streptavidin sensor, anti-CD28 Fab titrated in solution, 1:1 model.
Target sequence in this assay (VH, as listed by the source, chain 1 of 2): as the sequence (VH, as listed by the source, chain 1 of 2) above
Target sequence in this assay (VL, as listed by the source, chain 2 of 2): as the sequence (VL, as listed by the source, chain 2 of 2) above
For YCEGHLPEYRNKCL (cysteine pairing not given here; also: biotinylated, site not given here) [Peptide-132], the Kd was 110 nM and the “t1/2” value amounted to 0.8 min.
Turning to B1, the “t1/2” value was 1 min.

For orientation: IC50 means the concentration that inhibits the measured activity by half. A low value points to greater potency in that assay. Usually EC50 stands for the concentration needed to bring the measured effect to its halfway point. Higher therefore signals weaker potency. The Kd is a measure of binding affinity in units of concentration.
